Results from the supplement of paper PMC9170038.

tested on: K4 kissing-loop RNA reporter; experiment: apparent KD of K4 kissing-loop reporter; higher = weaker reporter binding; details: Eterna round: R107; input ligand: none
Experimental: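 RNA-MaP round R107: designed RNA switches with theophylline, tryptophan, arginine or FMN aptamers are transcribed on-chip within common flanks. They are titrated with a labelled K4 kissing-loop RNA reporter in RNA-MaP buffer (100 mM Tris pH 7.5, 80 mM KCl, 4 mM MgCl2), without ligand or with the indicated ligand. Median apparent KD per design.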
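Note: bound reporter read as fluorescence of individual clusters on recovered sequencing chips by microscopy, with normalized cluster intensities fitted with a binding model.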

Sequence | apparent KD of K4 kissing-loop reporter
UGUCAUUGGUCUGAUACCAGGUUGAUCGGUAAACGAUCUCCUGGAGUGAUGUUCCAAAAUAUCCCUUGGCAGCAGACCGAUGACU [TheoBS 6 #SwitchBubble #StaticStem] | 545 nM
UGACUGGACUGAAGGAGCGCUGAAGGAGCGUAAGCAGUGAUGUUGCUUACAGGUAGGUCGCAGCAGGUAGGUCGCAGUCUAGUCU | 93.4 nM
AGAACUGUCUGAGAUACCAGCCAGGAAGUGAUGUUUCCAGCUCCACGAAAGUGGAGCCAUGGCCCUUGGCAGCUCAGACAGUUCA [Omei KL Theo B SS A v5] | 147 nM
GCCAGUGCACGAAGGAGCGCCGUGACAGGUUACUGCCUUGGGCAGUGAUGUUGCUCAAUCUGGCAGGUAGGUCGCGUGCACUGGC | 170 nM
CCGAAGAACCAGUGAUGUUGGUUGACUAGACAGGAUAUGAGCAACAUCAGAAGGGUCUGGCUUCGGGAGUGGGUUGCGCUGACCU [Onbizaes] | 616 nM
GGAUAGGACGGAGGAUAUGGGCUAGGCAAGAAUAACUUGUCUAGCAAAUCCAUGAGGAGUGAUGUUCCAGAAGGUUGUCCUAUCG [FmnBX 1 G10+U75] | 85.2 nM
GCCGUACGCAUGGAUACCAGCAAUAUGCUACGUUGUAGUAGUAUAACCAGUGAUGUUGGAUGCCCUUGGCAGCCAUGCGUACGGC | 897 nM
GCCGUACGCAUGGAUACCAGCCGACAUGAUAUUUAGCUGGUGUCGUAGUGAUGUUACGAAGGCCCUUGGCAGCCAUGCGUACGGC | 78.2 nM
UAAGAGGACCACUGCGAGAGUCCUCGAAUACGAGGACCGGUACGGCCGCCACUCGAUAAUUUGUAGUGAUGUUGCAAGUAAGAAU [BrourdMod 7 - Jieux - Same State Tryptophan A] | 42.1 nM
GGUGCUGUCUGUGCCGCCCUCCUCGUCCCUCGAGGACCGGUACGGCCGCCACUCGAGUGAUGUUCGGGUAGCCAUCCCUGCCAGC [BDazzled - #20 Exc. Tryptophan A] | 431 nM
GCAGGCGUAAAAGGAUAUCAGGCUCUCUAGACACGAGUGAUGUUUGUGUAGGUAACGUAAUAGGCAUGAGAAGGUUUCACUUAAA [theeternabot_sameState_KL_FMN_B_49] | 547 nM
UUUGGUUUCUCGGCCGCCACUCGUUGGUUAUGGGCUUCAGGGAUAUAGUGAUGUUAUGUAUAGAAGAGGACCGGGAGAAGGUUUU [ExTryptoB.Du] | 330 nM
GGGUGAGCGCGAAGGAGCGCCCUGACAGGUUGCUGCCGUGGGCAGUGAUGUUGCUCAGUCCGGCAGGUAGGUCGCGUGCUCACCC | 164 nM
UGAUCUCGGCAGUGAUGUUGCAUAUGAGAAGGAGCGCACGAAAGUGCAGGUAGGUCGCUCAGCCAAAGAAAAUAAAACGAGAUCU [#SwitchBubble #K4Early] | 101 nM
AUGGGUCCACGAAGGAGCGCCGUGCAGUGAUGUUGCAGUUAGAUCCAGUGAUGUUUGGGCCGGCAGGUAGGUCGCGUGGAUUUAU [Exclusion Arginine B GF 22] | 249 nM
UGUCAUUGGUCGGCCGCCACUAGGACCGGGUAUAACCUAGUGAUGUUAGUAAGUACGGCCGCCACUAGGACCGGGACCGAUGACU [KL-SSTryp-B19 #DoubleAptamer] | 583 nM

same assay, conditions: Eterna round: R107; input ligand: theophylline 20 uM

Sequence | apparent KD of K4 kissing-loop reporter
AAGCAUUCUUCGGAAUGCAGACCCGCUGAGGAGGAUAUGACGAAAGUCAGAAGGUUUCAGUGAUGUUGAGGCCUCCUCAAUGGUC [whbob_Ex_FMNA__2th182] | 285 nM
CCAAUCUGUUACGAUACCAGUCAAAGAUAUUUUAUCAAUGCCCUCACCGAGUGAUGUUCGGACCCUUGGCAGCGUCUGGGAUAGG [ddfcmullin] | 165 nM
CCUUCUCUUGAUAGUGAUGUUAUCGAGGACAAGGAUAUCAUCUCAAUGAGAAGGUGUCCUUGAUAACAUGGAGGUCUGAAACAGA [Omei KL FMN A Exc C v9] | 427 nM
UAUUAAUUGUCAGGAUAUCGUAAACGAGUGAUGUUCGUAUAUCGACGAUAGUCGAUUCUAUCUAAACGAGAAGGGACAUUAUUUA [JR_SSFMNB_Sub008] | 516 nM
AUUUUUUACAGAAGGAGCGUGUUUUAAUAAUCAUGGUGCUUAGCGAGUGAUGUUCGCUUUACACAGGUAGGUCGCUGUUUAUUUA [JR_Nu_ExcArginiB_Sub030] | 112 nM
GAUUUAGAGGCGGCCGCCACUAGUGAUGUUAGUGAUGUUUGAUACUGAAUAUAUCUGCGUUUAGAUAGGACCGGGCCAGAUGGUG [ddcmullin] | 215 nM
GAUCUGAACGAAAGUUCGGAUCAGUCCGAUACCAGUAUGGAUUCAUACCCUUGGCAGCGGUUAUCUGCUAUGGAGUGAUGUUCCA [Theophylline A K4 11] | 321 nM
UUGAGACGUCAAGGAUAUUCCGCGGAAGGGCGAGCGACCCAAGUGUGAGUGAUGUUCAGCAAGCCGGAAGAAGGUGAAUUUCACC [theeternabot_sameState_KL_FMN_B_26] | 1050 nM
AACGUUUUGUGAAGGAGCGCGAUAAGCAGUGAUGUUGCUUACUUACAAUUUAUAUUUUACACGCAGGUAGGUCGCACAAUACGUA [JR_SSArginiB_Sub017] | 163 nM
GUUGUAUACUGAAGGAGCGAGUAGUGGAAACAUAAACUCAUUGCGAGUGAUGUUCGCAGUACUCAGGUAGGUCGCAGUAAUCGUA [Exclusion Arginine B Gf 10] | 453 nM
AAAUUUUCAAGUGAUACCAGACAUUUUUAUUUCUUUAUUUAUGCUAAGUGAUGUUUAGCAGUCCCUUGGCAGCACUAUUUAAUUA [JR_Nu_SSTheophyB_Sub030] | 231 nM
CCAUUCAUUUACGAUACCAGUCUAAUAUAUUUAAUCAAAACCCUCGCCGAGUGAUGUUCGGACCCUUGGCAGCGUCUGCGAGAGG [oookmullin] | 535 nM
CUGACUAAAUAGUCAGUGAUGUUGACUGGACGAGGACCGGUACGGCCGCCACUCGAGAGUGGUGUAAUAUAUGUCAUAUAGUCAA [Tryp A SS t3] | 423 nM
AAGGUCACUACUACAGUGAUGUUGUGGGAGCAGGAUAUGCAGAAAUGCAGAAGGGCUCGCUCCAAGUGACCGAAUGAAACAUUCA [Omei KL FMN A SS A v1] | 1210 nM
AAAAUAAACCAGUGAUGUUGGUGUCUAGAUACCAGCGACAAAAGUCGCCCUUGGCAGCUACGGACGUACAAAAUAAGUACGUCCU [MatMod 9 - Jieux - Same State - Theophylline A] | 481 nM
AAGUCAUAGGCAGGAUAUGCUUAGUAUUAAGGCCAUAUAUACGUAUAGAGUGAUGUUUUGUACCAGGCAGAAGGGCUACAUCAGU [FMN B Excl V6 (+A)] | 634 nM
UGUCAUUGGUCUGAUACCAGGUUGAUCGGUAAACGAUCUCCUGGAGUGAUGUUCCAAAAUAUCCCUUGGCAGCAGACCGAUGACU [TheoBS 6 #SwitchBubble #StaticStem] | 492 nM
UGACUGGACUGAAGGAGCGCUGAAGGAGCGUAAGCAGUGAUGUUGCUUACAGGUAGGUCGCAGCAGGUAGGUCGCAGUCUAGUCU | 90 nM
AGAACUGUCUGAGAUACCAGCCAGGAAGUGAUGUUUCCAGCUCCACGAAAGUGGAGCCAUGGCCCUUGGCAGCUCAGACAGUUCA [Omei KL Theo B SS A v5] | 105 nM
GCCAGUGCACGAAGGAGCGCCGUGACAGGUUACUGCCUUGGGCAGUGAUGUUGCUCAAUCUGGCAGGUAGGUCGCGUGCACUGGC | 175 nM
CCGAAGAACCAGUGAUGUUGGUUGACUAGACAGGAUAUGAGCAACAUCAGAAGGGUCUGGCUUCGGGAGUGGGUUGCGCUGACCU [Onbizaes] | 296 nM
GGAUAGGACGGAGGAUAUGGGCUAGGCAAGAAUAACUUGUCUAGCAAAUCCAUGAGGAGUGAUGUUCCAGAAGGUUGUCCUAUCG [FmnBX 1 G10+U75] | 106 nM
GCCGUACGCAUGGAUACCAGCAAUAUGCUACGUUGUAGUAGUAUAACCAGUGAUGUUGGAUGCCCUUGGCAGCCAUGCGUACGGC | 349 nM
GCCGUACGCAUGGAUACCAGCCGACAUGAUAUUUAGCUGGUGUCGUAGUGAUGUUACGAAGGCCCUUGGCAGCCAUGCGUACGGC | 79.1 nM
